# Test results taken from patent publication US20200277374A1 (Alector, published 2020).
# B1: anti-Siglec-7 antibody 10B5 (antibody, V domains shown)
# VH: QVHLQQSGPELVKPGASVKISCKASGYAFTNCWMNWVRQRPGKGLDWIGRIFPGNGHTNYSGKFKDKATLTEDKSSSTAYMQLSSLTSEDSAVYFCARDYSDYYFDYWGQGTTLTVSS
# VL: DVQMTQTTSSLSASLGDRVTISCRASQDINTYLNWYQQKPDGTVKLLIYYTSRLHSGVPSRFSGSGSGTDYSLTISNLEQEDIATYFCQQGNTLPWTFGGGTKLEIK
# notes: that light chain holds several Z and differs in its CDRs from S7-10B5.1 / 10B5L1; also called S7-10B5; mAb S7-10B5
# Assays:
# [1] = target: T1, human Siglec-7 expressed on human cells (primary monocytes, dendritic cells, macrophages, NK cells, … (human, UniProt Q9Y286 19-467)); assay: FACS, human primary dendritic cells, 10 ug/ml mAb
# T1 construct: Endogenous receptor on cells; also called Siglec-7 receptor
# T1 sequence (Q9Y286 19-467): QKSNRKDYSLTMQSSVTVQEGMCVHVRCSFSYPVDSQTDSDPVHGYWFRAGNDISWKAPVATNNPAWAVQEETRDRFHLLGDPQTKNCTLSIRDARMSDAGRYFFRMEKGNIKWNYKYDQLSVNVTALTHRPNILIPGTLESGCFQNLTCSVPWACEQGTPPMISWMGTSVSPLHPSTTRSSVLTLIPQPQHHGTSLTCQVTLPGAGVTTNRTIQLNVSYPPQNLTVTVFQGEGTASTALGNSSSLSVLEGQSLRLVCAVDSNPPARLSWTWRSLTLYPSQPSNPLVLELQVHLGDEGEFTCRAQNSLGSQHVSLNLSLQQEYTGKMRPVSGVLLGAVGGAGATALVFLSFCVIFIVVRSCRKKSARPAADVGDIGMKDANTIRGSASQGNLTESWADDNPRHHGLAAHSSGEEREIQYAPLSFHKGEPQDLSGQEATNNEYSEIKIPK
# [2] = target: T1, human Siglec-7 expressed on human cells …; assay: FACS, human primary macrophages, 10 ug/ml mAb
# N81A = target: T2, N81A (human, UniProt Q9Y286); assay: flow cytometry on HEK-293T cells expressing the mutant; mean % of wild-type signal (range of duplicates)
# T2 construct: clone of the siglec-7 mutation library; also called Siglec-7 N81A
# T2 sequence (Q9Y286 19-467 N81A limits assumed): as the sequence (Q9Y286 19-467) above, with N63A counted along it
# R45A = target: T3, R45A (human, UniProt Q9Y286); assay: as above
# T3 construct: clone of the siglec-7 mutation library; also called Siglec-7 R45A
# T3 sequence (Q9Y286 19-467 R45A limits assumed): as the sequence (Q9Y286 19-467) above, with R27A counted along it
# V44A = target: T4, V44A (human, UniProt Q9Y286); assay: as above
# T4 construct: clone of the siglec-7 mutation library; also called Siglec-7 V44A
# T4 sequence (Q9Y286 19-467 V44A limits assumed): as the sequence (Q9Y286 19-467) above, with V26A counted along it
# Y50A = target: T5, Y50A (human, UniProt Q9Y286); assay: as above
# T5 construct: clone of the siglec-7 mutation library; also called Siglec-7 Y50A
# T5 sequence (Q9Y286 19-467 Y50A limits assumed): as the sequence (Q9Y286 19-467) above, with Y32A counted along it
# S47A = target: T6, S47A (human, UniProt Q9Y286); assay: as above
# T6 construct: clone of the siglec-7 mutation library; also called Siglec-7 S47A
# T6 sequence (Q9Y286 19-467 S47A limits assumed): as the sequence (Q9Y286 19-467) above, with S29A counted along it
# F48A = target: T7, F48A (human, UniProt Q9Y286); assay: as above
# T7 construct: clone of the siglec-7 mutation library; also called Siglec-7 F48A
# T7 sequence (Q9Y286 19-467 F48A limits assumed): as the sequence (Q9Y286 19-467) above, with F30A counted along it
# K104A = target: T8, K104A (human, UniProt Q9Y286); assay: as above
# T8 construct: clone of the siglec-7 mutation library; also called Siglec-7 K104A
# T8 sequence (Q9Y286 19-467 K104A limits assumed): as the sequence (Q9Y286 19-467) above, with K86A counted along it
# M185A = target: T9, M185A (human, UniProt Q9Y286); assay: as above
# T9 construct: clone of the siglec-7 mutation library; also called Siglec-7 M185A
# T9 sequence (Q9Y286 19-467 M185A limits assumed): as the sequence (Q9Y286 19-467) above, with M167A counted along it
# W74A = target: T10, W74A (human, UniProt Q9Y286); assay: as above
# T10 construct: clone of the siglec-7 mutation library; also called Siglec-7 W74A
# T10 sequence (Q9Y286 19-467 W74A limits assumed): as the sequence (Q9Y286 19-467) above, with W56A counted along it
# T103A = target: T11, T103A (human, UniProt Q9Y286); assay: as above
# T11 construct: clone of the siglec-7 mutation library; also called Siglec-7 T103A
# T11 sequence (Q9Y286 19-467 T103A limits assumed): as the sequence (Q9Y286 19-467) above, with T85A counted along it
# I72A = target: T12, I72A (human, UniProt Q9Y286); assay: as above
# T12 construct: clone of the siglec-7 mutation library; also called Siglec-7 I72A
# T12 sequence (Q9Y286 19-467 I72A limits assumed): as the sequence (Q9Y286 19-467) above, with I54A counted along it
# M30A = target: T13, M30A (human, UniProt Q9Y286); assay: as above
# T13 construct: clone of the siglec-7 mutation library; also called Siglec-7 M30A
# T13 sequence (Q9Y286 19-467 M30A limits assumed): as the sequence (Q9Y286 19-467) above, with M12A counted along it
# [3] = target: T1, human Siglec-7 expressed on human cells …; assay: cell-based or functional assay
binder,measurement,setting,value
B1,% Positive,[1],99.6%
same,MFI,[1],3230
same,% Positive,[2],99.7%
same,MFI,[2],6030
same,Binding Reactivity (% WT),N81A,153 % WT
same,Binding Reactivity (% WT),R45A,37.3 % WT
same,Binding Reactivity (% WT),V44A,93.9 % WT
same,Binding Reactivity (% WT),Y50A,108 % WT
same,Binding Reactivity (% WT),S47A,81.7 % WT
same,Binding Reactivity (% WT),F48A,159 % WT
same,Binding Reactivity (% WT),K104A,13.6 % WT
same,Binding Reactivity (% WT),M185A,29.1 % WT
same,Binding Reactivity (% WT),W74A,101 % WT
same,Binding Reactivity (% WT),T103A,96.3 % WT
same,Binding Reactivity (% WT),I72A,130 % WT
same,Binding Reactivity (% WT),M30A,89.9 % WT
same,"Percent Siglec-7 Surface Expression, Macrophages",[3],3.2%
same,"Percent Siglec-7 Surface Expression, Microglia",[3],5.5%
same,"Percent Siglec-7 Surface Expression, NK cells",[3],25.5%
